Test [1] has as its target human αEβ7 integrin expressed on cells (human) (UniProt P38570). As to the kind of experiment: staining of K562 αEβ7 cells, 10 µg/ml; Ca^2+ and Mg^2+ (1 mM each).
Test [2] shares this target. Kind of test: staining of K562 αEβ7 cells, 5 µg/ml; Ca^2+, Mg^2+ and Mn^2+ (1 mM each).
Test [3] has the same target. Kind of test: staining of K562 αEβ7 cells, 2.5 µg/ml; Ca^2+ and Mg^2+ (1 mM each).
Test [4] has as its target E-cadherin-IgG fusion protein (human) (UniProt P12830). Kind of test: cell adhesion assay; buffer with EDTA (5 mM).
Test [5] has the same target. As to the kind of experiment: cell adhesion assay; buffer with Ca^2+, Mg^2+ and Mn^2+ (1 mM each).
Test [6] has the same target. As to the kind of experiment: cell adhesion assay; buffer with Ca^2+ and Mg^2+ (1 mM each).

Chain of human αEβ7 integrin expressed on cells (human) (P38570 other isoform, or with tags, fused parts or gaps limits assumed, chain 1 of 2): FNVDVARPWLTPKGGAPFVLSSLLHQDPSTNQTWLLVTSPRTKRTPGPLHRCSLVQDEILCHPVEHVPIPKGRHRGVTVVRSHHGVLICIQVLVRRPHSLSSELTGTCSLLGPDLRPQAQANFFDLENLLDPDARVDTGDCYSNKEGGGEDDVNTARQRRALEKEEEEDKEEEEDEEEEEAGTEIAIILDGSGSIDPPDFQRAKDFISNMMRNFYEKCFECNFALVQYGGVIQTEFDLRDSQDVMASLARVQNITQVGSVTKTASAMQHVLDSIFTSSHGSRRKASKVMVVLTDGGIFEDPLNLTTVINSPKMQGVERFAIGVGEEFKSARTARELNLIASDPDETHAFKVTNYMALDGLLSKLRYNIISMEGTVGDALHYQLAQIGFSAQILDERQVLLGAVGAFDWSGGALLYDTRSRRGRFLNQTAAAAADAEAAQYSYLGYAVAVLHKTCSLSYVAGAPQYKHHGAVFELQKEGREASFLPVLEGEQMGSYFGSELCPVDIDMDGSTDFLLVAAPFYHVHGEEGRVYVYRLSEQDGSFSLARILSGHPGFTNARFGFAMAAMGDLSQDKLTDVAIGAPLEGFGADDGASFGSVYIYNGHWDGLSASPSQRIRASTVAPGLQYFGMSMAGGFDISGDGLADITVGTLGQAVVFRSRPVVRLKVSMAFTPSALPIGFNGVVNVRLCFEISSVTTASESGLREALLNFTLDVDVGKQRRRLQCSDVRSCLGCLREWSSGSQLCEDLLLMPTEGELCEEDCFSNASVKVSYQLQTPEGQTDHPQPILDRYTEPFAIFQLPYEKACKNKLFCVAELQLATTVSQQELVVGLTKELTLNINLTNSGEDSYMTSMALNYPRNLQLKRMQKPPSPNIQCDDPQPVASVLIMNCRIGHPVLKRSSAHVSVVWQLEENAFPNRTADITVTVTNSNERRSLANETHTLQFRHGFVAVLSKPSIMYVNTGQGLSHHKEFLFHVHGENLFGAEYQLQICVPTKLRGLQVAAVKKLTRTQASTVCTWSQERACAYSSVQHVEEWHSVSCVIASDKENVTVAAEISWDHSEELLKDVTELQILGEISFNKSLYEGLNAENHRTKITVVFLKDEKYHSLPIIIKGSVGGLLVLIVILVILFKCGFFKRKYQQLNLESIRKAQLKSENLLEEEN
Chain of human αEβ7 integrin expressed on cells (human) (chain, as listed by the source limits assumed, chain 2 of 2): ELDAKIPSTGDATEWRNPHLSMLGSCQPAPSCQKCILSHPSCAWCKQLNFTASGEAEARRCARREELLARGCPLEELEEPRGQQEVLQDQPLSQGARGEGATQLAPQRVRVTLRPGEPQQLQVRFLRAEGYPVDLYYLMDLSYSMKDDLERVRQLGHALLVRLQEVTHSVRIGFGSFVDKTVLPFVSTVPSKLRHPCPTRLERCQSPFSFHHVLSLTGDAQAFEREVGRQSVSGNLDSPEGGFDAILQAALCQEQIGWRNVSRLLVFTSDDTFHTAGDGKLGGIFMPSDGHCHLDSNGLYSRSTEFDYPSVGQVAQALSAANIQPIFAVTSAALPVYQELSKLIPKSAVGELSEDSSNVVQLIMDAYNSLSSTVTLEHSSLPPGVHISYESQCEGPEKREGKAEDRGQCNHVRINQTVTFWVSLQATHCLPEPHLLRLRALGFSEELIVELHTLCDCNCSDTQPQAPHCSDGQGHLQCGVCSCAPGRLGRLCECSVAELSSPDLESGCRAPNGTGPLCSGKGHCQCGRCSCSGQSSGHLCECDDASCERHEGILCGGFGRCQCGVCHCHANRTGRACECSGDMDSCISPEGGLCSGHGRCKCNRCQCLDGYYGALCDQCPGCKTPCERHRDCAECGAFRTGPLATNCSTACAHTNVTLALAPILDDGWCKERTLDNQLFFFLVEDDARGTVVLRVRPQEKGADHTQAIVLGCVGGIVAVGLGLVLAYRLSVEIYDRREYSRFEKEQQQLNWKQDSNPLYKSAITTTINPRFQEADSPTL

As to “E-cadherin-IgG fusion protein (from UniProt P12830 155-699) (Fc fusion)”, the Binding (mean fluorescence intensity) in test [1] was 75 MFI; in test [2], 100 MFI; in test [3] it was < 25 MFI.

Take “human αEβ7 integrin expressed on cells (from UniProt P38570 19-1179; P26010 20-798) (receptor)”: the % cells bound to immobilized E-cadherin in test [4] was < 10%; in test [5], 60%; in test [6] it was 40%.
